Source: patent publication US20240018502A1
Residue numbers refer to the chain shown, from its start. Names and notes keep the numbering of the source.

B1: MTSP-1 H40R/I41H/F97T/ins97aE/T98G/F99L/C122S/Q175L/Q192E (enzyme)
chain: VVGGTDADEGEWPWQVSLHALGQGRHCGASLISPNWLVSAAHCYIDDRGFRYSDPTQWTAFLGLHDQSQRSAPGVQERRLKRIISHPFFNDTEGLDYDIALLELEKPAEYSSMVRPISLPDASHVFPAGKAIWVTGWGHTQYGGTGALILQKGEIRVINQTTCENLLPQLITPRMMCVGFLSGGVDSCEGDSGGPLSSVEADGRIFQAGVVSWGDGCAQRNKPGVYTRLPLFRDWIKENTGV
B2: MTSP-1 H40R/I41H/F97E/ins97aE/T98G/F99L/C122S/Q175L/Q192G (enzyme)
chain: B1 chain with T92E, E189G
B3: MTSP-1 I41R/ins97aE/F97T/T98G/F99L/C122S/G151E/Q175L/Q192E (enzyme)
chain: B1 chain with R25H, H26R, G146E
B4: MTSP-1 I41R/ins97aE/F97T/T98G/F99L/C122S/G151D/Q175T/Q192E (enzyme)
chain: B1 chain with R25H, H26R, G146D, L170T
B5: MTSP-1 I41R/ins97aE/F97T/T98G/F99L/C122S/G151E/Q175T/Q192D (enzyme)
chain: B1 chain with R25H, H26R, G146E, L170T, E189D
B6: MTSP-1 I41R/ins97aE/F97T/T98G/F99L/C122S/G151N/Q175L/Q192D (enzyme)
chain: B1 chain with R25H, H26R, G146N, E189D
B7: MTSP-1 H40R/I41H/F97D/ins97aE/T98G/F99L/C122S/Q175L/Q192G (enzyme)
chain: B1 chain with T92D, E189G
B8: MTSP-1 H40P/I41R/ins97aE/F97T/T98G/F99L/C122S/Q175L/Q192E (enzyme)
chain: B1 chain with R25P, H26R
B9: MTSP-1 I41R/ins97aE/F97T/T98G/F99L/C122S/G151D/Q175T/Q192D (enzyme)
chain: B1 chain with R25H, H26R, G146D, L170T, E189D
B10: MTSP-1 K86R/F97T/ins97aE/T98G/F99L/K110R/C122S/K134R/K157R/Q175L/Q192E/K224R/K239R (enzyme)
chain: B1 chain with R25H, H26I, K81R, K106R, K130R, K152R, K222R, K237R
B11: MTSP-1 I41R/ins97aE/F97T/T98G/F99L/C122S/G151D/Q175L/Q192E (enzyme)
chain: B1 chain with R25H, H26R, G146D
B12: MTSP-1 H40R/I41H/F97T/ins97aE/T98G/F99L/C122S/Q175L/Q192G (enzyme)
chain: B1 chain with E189G
B13: MTSP-1 H40P/I41R/ins97aE/F97T/T98G/F99L/C122S/G151D/Q175L/Q192E (enzyme)
chain: B1 chain with R25P, H26R, G146D
B14: MTSP-1 I41R/ins97aE/F97T/T98G/F99L/C122S/G151N/Q175L/Q192E (enzyme)
chain: B1 chain with R25H, H26R, G146N
B15: MTSP-1 H40R/I41H/F97D/F99L/C122S/G151N/Q175M/Q192A/D217N/K224R (enzyme)
chain: VVGGTDADEGEWPWQVSLHALGQGRHCGASLISPNWLVSAAHCYIDDRGFRYSDPTQWTAFLGLHDQSQRSAPGVQERRLKRIISHPFFNDDTLDYDIALLELEKPAEYSSMVRPISLPDASHVFPAGKAIWVTGWGHTQYGGTNALILQKGEIRVINQTTCENLLPQMITPRMMCVGFLSGGVDSCAGDSGGPLSSVEADGRIFQAGVVSWGNGCAQRNRPGVYTRLPLFRDWIKENTGV
B16: MTSP-1 I41R/F99L/C122S/Q192G (enzyme)
chain: B15 chain with R25H, H26R, D92F, N145G, M169Q, A188G, N214D, R221K
B17: MTSP-1 H40R/I41H/F97D/F99L/C122S/G151N/L153R (enzyme)
chain: B15 chain with L147R, M169Q, A188Q, N214D, R221K
B18: MTSP-1 H40R/I41H/F97D/C122S/G151N/L153R/V202M (enzyme)
chain: B15 chain with L94F, L147R, M169Q, A188Q, V198M, N214D, R221K
B19: MTSP-1 H40P/I41R/F99L/C122S/G151K/Q192G (enzyme)
chain: B15 chain with R25P, H26R, D92F, N145K, M169Q, A188G, N214D, R221K
B20: MTSP-1 H40R/I41H/F97D/C122S/G133D/G151N (enzyme)
chain: B15 chain with L94F, G128D, M169Q, A188Q, N214D, R221K
B21: MTSP-1 H40K/I41M/F97D/F99L/C122S/G151N/Q175L/Q192A/D217N/K224R (enzyme)
chain: B15 chain with R25K, H26M, M169L
B22: MTSP-1 H40R/I41H/F97D/F99L/C122S/Q175M/D217N/K224R (enzyme)
chain: B15 chain with N145G, A188Q
B23: MTSP-1 H40R/I41H/F97D/F99L/C122S/Q175M/Q192D/D217N/K224R (enzyme)
chain: B15 chain with N145G, A188D
B24: MTSP-1 H40K/I41M/F97D/F99L/C122S/G151N/Q175M/Q192A/D217N/K224R (enzyme)
chain: B15 chain with R25K, H26M
B25: MTSP-1 H40R/I41H/F97D/F99L/C122S/G151N/Q175L/Q192A/D217N/K224R (enzyme)
chain: B15 chain with M169L
B26: MTSP-1 H40R/I41H/F97D/F99L/C122S/Q192G/D217I/K224S (enzyme)
chain: B15 chain with N145G, M169Q, A188G, N214I, R221S
B27: MTSP-1 H40R/I41H/F97D/C122S/Q175R/Q192G/D217I/K224Q (enzyme)
chain: B15 chain with L94F, N145G, M169R, A188G, N214I, R221Q
B28: MTSP-1 H40R/I41H/F97D/F99L/C122S/Q192G/D217K/K224A (enzyme)
chain: B15 chain with N145G, M169Q, A188G, N214K, R221A
B29: MTSP-1 H40P/I41R/F99L/C122S/Q192G (enzyme)
chain: B15 chain with R25P, H26R, D92F, N145G, M169Q, A188G, N214D, R221K
B30: MTSP-1 H40K/I41M/F97D/F99L/C122S/Q175M/D217N/K224R (enzyme)
chain: B15 chain with R25K, H26M, N145G, A188Q
B31: MTSP-1 H40R/I41H/K86R/F97D/K110R/C122S/K134R/G151N/K157R/K224R/K239R (enzyme)
chain: B15 chain with K81R, L94F, K105R, K129R, K151R, M169Q, A188Q, N214D, K236R
B32: MTSP-1 H40R/I41H/F97D/C122S/G151N/L153R (enzyme)
chain: B15 chain with L94F, L147R, M169Q, A188Q, N214D, R221K
B33: MTSP-1 H40R/I41H/F99L/C122S/G151E/Q192G (enzyme)
chain: B15 chain with D92F, N145E, M169Q, A188G, N214D, R221K
B34: MTSP-1 H40K/I41M/F99L/C122S/T150A/G151R/Q192G (enzyme)
chain: B15 chain with R25K, H26M, D92F, T144A, N145R, M169Q, A188G, N214D, R221K
B35: MTSP-1 H40K/I41M/F97D/F99L/C122S/Q175M/Q192D/D217N/K224R (enzyme)
chain: B15 chain with R25K, H26M, N145G, A188D
B36: MTSP-1 H40R/I41H/F97D/F99L/C122S/Q175R/Q192G/D217H/K224S (enzyme)
chain: B15 chain with N145G, M169R, A188G, N214H, R221S
B37: MTSP-1 H40R/I41H/F97D/F99L/C122S/G151N/Q192H/P232S (enzyme)
chain: B15 chain with M169Q, A188H, N214D, R221K, P229S
B38: MTSP-1 H40R/I41H/F99L/C122S/G151K/Q192G (enzyme)
chain: B15 chain with D92F, N145K, M169Q, A188G, N214D, R221K
B39: MTSP-1 H40R/I41H/F97D/F99L/C122S/Q175R/Q192G/D217E/K224R (enzyme)
chain: B15 chain with N145G, M169R, A188G, N214E
B40: MTSP-1 H40K/I41M/F97D/F99L/C122S/G151N/Q175M/Q192D/D217N/K224R (enzyme)
chain: B15 chain with R25K, H26M, A188D
B41: MTSP-1 H40R/I41H/F97D/F99L/C122S/G151N/Q192H (enzyme)
chain: B15 chain with M169Q, A188H, N214D, R221K
B42: MTSP-1 K86R/K110R/C122S/K134R/K157R/K224R/K239R (enzyme)
chain: VVGGTDADEGEWPWQVSLHALGQGHICGASLISPNWLVSAAHCYIDDRGFRYSDPTQWTAFLGLHDQSQRSAPGVQERRLRRIISHPFFNDFTFDYDIALLELERPAEYSSMVRPISLPDASHVFPAGRAIWVTGWGHTQYGGTGALILQRGEIRVINQTTCENLLPQQITPRMMCVGFLSGGVDSCQGDSGGPLSSVEADGRIFQAGVVSWGDGCAQRNRPGVYTRLPLFRDWIRENTGV

Target: plasma purified human complement protein C3 (human) (UniProt P01024)
Sequence (P01024 23-667, chain 1 of 2): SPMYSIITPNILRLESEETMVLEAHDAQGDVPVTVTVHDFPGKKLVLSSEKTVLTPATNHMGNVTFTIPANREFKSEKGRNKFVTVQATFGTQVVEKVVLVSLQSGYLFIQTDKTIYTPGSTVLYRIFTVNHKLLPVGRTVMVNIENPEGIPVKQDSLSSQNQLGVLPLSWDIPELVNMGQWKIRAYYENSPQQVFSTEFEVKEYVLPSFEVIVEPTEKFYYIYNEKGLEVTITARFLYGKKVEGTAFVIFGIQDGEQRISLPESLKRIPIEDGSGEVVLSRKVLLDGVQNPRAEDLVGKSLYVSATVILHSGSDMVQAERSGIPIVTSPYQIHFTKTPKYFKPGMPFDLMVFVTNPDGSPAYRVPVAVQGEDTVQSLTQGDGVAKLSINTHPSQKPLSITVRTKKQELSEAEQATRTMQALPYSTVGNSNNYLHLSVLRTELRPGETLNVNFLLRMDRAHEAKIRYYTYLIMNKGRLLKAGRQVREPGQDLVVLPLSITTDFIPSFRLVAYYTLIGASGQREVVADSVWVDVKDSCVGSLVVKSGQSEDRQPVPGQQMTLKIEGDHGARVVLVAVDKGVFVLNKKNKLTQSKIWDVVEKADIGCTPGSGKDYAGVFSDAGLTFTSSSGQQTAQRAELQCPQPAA
Sequence (P01024 672-1663, chain 2 of 2): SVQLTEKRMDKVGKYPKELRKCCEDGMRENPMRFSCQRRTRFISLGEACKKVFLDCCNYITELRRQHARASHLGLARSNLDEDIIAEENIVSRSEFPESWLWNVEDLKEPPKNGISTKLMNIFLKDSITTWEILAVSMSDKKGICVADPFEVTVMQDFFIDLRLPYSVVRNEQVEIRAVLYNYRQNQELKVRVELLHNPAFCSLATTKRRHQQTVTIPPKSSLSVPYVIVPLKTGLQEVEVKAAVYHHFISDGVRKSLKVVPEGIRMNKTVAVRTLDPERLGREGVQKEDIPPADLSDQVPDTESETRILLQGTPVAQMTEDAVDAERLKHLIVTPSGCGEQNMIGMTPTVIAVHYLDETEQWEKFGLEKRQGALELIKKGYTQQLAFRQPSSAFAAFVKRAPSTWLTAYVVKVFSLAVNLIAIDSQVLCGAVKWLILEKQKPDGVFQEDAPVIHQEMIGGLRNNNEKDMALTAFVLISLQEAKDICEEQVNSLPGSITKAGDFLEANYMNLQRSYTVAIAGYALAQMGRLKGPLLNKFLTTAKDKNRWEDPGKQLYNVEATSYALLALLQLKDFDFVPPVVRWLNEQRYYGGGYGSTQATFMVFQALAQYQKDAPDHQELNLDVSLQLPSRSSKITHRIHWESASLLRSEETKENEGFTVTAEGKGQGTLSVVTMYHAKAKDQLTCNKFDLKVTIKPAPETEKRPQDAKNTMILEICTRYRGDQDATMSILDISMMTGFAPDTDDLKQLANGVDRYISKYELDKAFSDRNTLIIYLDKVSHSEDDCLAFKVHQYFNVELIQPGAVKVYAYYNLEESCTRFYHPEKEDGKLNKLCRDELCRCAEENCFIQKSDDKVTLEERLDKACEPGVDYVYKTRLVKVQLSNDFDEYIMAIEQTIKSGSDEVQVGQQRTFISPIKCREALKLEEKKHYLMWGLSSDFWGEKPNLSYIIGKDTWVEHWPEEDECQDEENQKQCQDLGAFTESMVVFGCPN
Test: cell-based or functional assay

| Binder | EC50 of hC3 cleavage |
| --- | --- |
| B1 | 5860 nM |
| B2 | 82.4 nM |
| B3 | 126 nM |
| B4 | 743 nM |
| B5 | 1770 nM |
| B6 | 622 nM |
| B7 | 39.7 nM |
| B8 | 442 nM |
| B9 | 1620 nM |
| B10 | 253 nM |
| B11 | 163 nM |
| B12 | 46 nM |
| B13 | 212 nM |
| B14 | 311 nM |
| B15 | 563 nM |
| B16 | 53.8 nM |
| B17 | 59.9 nM |
| B18 | 103 nM |
| B19 | 96.1 nM |
| B20 | 60.4 nM |
| B21 | 1290 nM |

| Binder | EC50 of hC3 cleavage |
| --- | --- |
| B22 | 103 nM |
| B23 | 9990 nM |
| B24 | 1230 nM |
| B25 | 540 nM |
| B26 | 19.3 nM |
| B27 | 93.1 nM |
| B28 | 23.4 nM |
| B29 | 62.4 nM |
| B30 | 144 nM |
| B31 | 304 nM |
| B32 | 126 nM |
| B33 | 829 nM |
| B34 | 110 nM |
| B35 | 9.64 nM |
| B36 | 45.2 nM |
| B37 | 262 nM |
| B38 | 1520 nM |
| B39 | 31.2 nM |
| B40 | 9.74 nM |
| B41 | 179 nM |
| B42 | 17.3 nM |
